{
  "source": "patent US20240294622A1",
  "about": "(SUZHOU TRANSCENTA THERAPEUTICS, published 2024)",
  "key": {"[1]": {"target": "T1, Gremlin-Fc (human, UniProt O60565 25-184)", "T1 construct": "also called HGREM1-Fc (ACRO); wild-type gremlin-1", "T1 sequence": "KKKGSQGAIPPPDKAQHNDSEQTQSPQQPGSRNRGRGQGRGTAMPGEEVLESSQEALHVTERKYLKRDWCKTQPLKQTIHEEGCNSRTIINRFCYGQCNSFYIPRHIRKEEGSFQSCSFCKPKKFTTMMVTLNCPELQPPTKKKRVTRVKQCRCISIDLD", "test": "ELISA, coated BMP4 0.5 ug/ml", "method": "(§1) Gremlin is known to be able to bind to BMP proteins and is validated by the present disclosure. Briefly, gremlin-Fc was tested for its binding ability to BMP 2/4/7 immobilized on plate. Briefly, plates were coated with […] of recombinant human BMP2, BMP4) (hBMP4, Peprotech) or human BMP7 (R&D) overnight and wild-type gremlin-1 was added to coated plates and allowed to incubate for an additional hour at RT. The plates were then washed and plate bound biotin-hGremlin was detected with neutravidin conjugated with HRP (thermo). Plates were then developed with a TMB solution and stopped by adding stop solution. The plates were read on a plate reader at 450 nm."}, "[2]": {"target": "T2, HGREM1-His (ACRO) (human, UniProt O60565 25-184)", "T2 construct": "Lys25-Asp184 of NP_037504 with C-terminal polyhistidine tag (ACRO GR1-H52H3); they are put here; also called hGREM1 (ACRO); human gremlin (ACRO)", "T2 sequence": "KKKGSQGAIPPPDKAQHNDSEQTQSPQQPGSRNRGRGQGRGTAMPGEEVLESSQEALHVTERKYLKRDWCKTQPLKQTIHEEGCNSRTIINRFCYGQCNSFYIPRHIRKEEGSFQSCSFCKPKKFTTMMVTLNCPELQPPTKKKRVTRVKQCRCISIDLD", "test": "ELISA: coated BMP4, gremlin titrated (sheet title: BMP2/4/7 binding to human gremlin-his)", "method": "as §1"}, "[3]": {"target": "T2, HGREM1-His (ACRO)", "test": "BLI Fortebio, human gremlin-his on NTA biosensor, antibody 100, 50, 25 nM", "method": "The affinity of the humanized antibodies were also measured by Fortebio. Human gremlin protein was diluted with kinetics buffer to get a concentration of 2 μg/ml. 0 nM was used as a reference control. Antibodies to be tested were diluted with ForteBio kinetics buffer (PBS pH 7.4, 0.1% BSA+0.002% Tween-20) to a concentration of 100 nM, 50 nM, and 25 nM. Human gremlin-his was immobilized onto NTA biosensor. The baseline was detected for 60 seconds, and then anti-gremlin antibody association was detected for 120 seconds to get the Kₒₙ factor data. Followed by dissociation in kinetic buffer for 90 seconds to get the Koff factor data."}, "[4]": {"target": "T2, HGREM1-His (ACRO)", "test": "ELISA: coated BMP2, gremlin titrated (sheet title: BMP2/4/7 binding to human gremlin-his)"}, "[5]": {"target": "T1, Gremlin-Fc", "test": "ELISA, coated BMP2 0.5 ug/ml", "method": "as §1"}, "[6]": {"target": "T3, DAN-his (Sinobiological) (human, UniProt P41271 17-181, limits assumed)", "T3 construct": "also called DAN (Sinobiological); human DAN-his", "T3 sequence (looked up)": "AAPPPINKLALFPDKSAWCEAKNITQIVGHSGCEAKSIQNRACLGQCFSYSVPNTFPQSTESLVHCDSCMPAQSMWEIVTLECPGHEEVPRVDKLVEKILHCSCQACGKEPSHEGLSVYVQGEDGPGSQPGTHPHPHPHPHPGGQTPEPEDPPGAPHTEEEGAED", "test": "ELISA on coated DAN-his; unit from the axis label Ab(ug/ml), the table prints none", "method": "(§2) Clear polystyrene plates (BEAVER) were coated with 100 μl/well of a 0.5 μg/ml human gremlin (ACRO) and DAN (Sinobiological) in high pH coating buffer overnight at 4° C. Then the plates were washed once on an automatic plate washer using PBS+0.1% Tween 20 (Sigma). 100 μl of block solution consisting of PBS+1% BSA+1% normal goat serum+0.5% Tween 20 (Sigma) was added to each well and incubated at room temperature for 2 hours. Then 100 ul of antibodies (hybridoma or chimeric antibody 36F5, chimeric antibody 67G11, chimeric antibody 42B9) in antibody dilution buffer containing PBS+1% BSA+1% normal goat serum+0.01% Tween 20 starting from 2 μg/ml (13.33 nM) and then 4 fold serial dilution were added to each well of the plate and incubated for 1 hours at room temperature. Afterward the plates were washed three times with 200 ul of PBS+0.1% Tween20 followed by adding 100 μl/well 1:10000 Goat anti mouse IgG-HRP or mouse anti-human IgG-HRP (abcam), and incubate for 1 hour at room temperature. They were then washed 3× with PBS+0.1% Tween20. Finally, 100 μl/well of TMB (InnoReagents) was added to each well and after 2 minutes add 50 ul of stop solution to each well. The plates were read on a Multiscan FC microplate reader (Thermo Scientific) at 450 nm."}, "[7]": {"target": "T3, DAN-his (Sinobiological)", "test": "blocking ELISA: coated BMP4, antibody pre-incubated with human DAN-his, anti-his HRP; blocked ligand BMP4; unit from the axis Concentration(nM) [Continued]", "method": "(§3) Plates were coated with recombinant human BMP2/4 (0.5 μg/ml) overnight. Then the plates were washed once on an automatic plate washer using PBS+0.1% Tween 20 (Sigma). 100 μl of block solution consisting of PBS+1% BSA+1% normal goat serum+0.5% Tween 20 (Sigma) was added to each well and incubated at room temperature for 2 hours. Then the plates were washed three 3 times. Then 55 ul serial dilutions of chimeric antibodies 36F5 and 55 ul […] of human DAN-his in dilution buffer containing PBS+1% BSA+1% normal goat serum+0.01% Tween 20 separately were mixed and incubated for 1 h at RT before 100 ul of this complex was added to coated plates and allowed to incubate for an additional hour at room temperature. The plates were then washed 3 times and added with 100 ul of anti-his HRP (GenScript) in dilution buffer. Plates were then developed with a TMB solution and stopped by adding stop solution. After wash three times with wash buffer, the plates were read on a plate reader at 450 nm. Also, consistent with previous result, besides blocking gremlin activity, 36F5 could block BMP2/4 binding to DAN protein. (FIGS. 20A and 20B)."}, "[8]": {"target": "T2, HGREM1-His (ACRO)", "test": "ELISA on coated human Gremlin-his; unit from the axis Ab(nM); panel called FIG. 19C in the text", "method": "as §2"}, "[9]": {"target": "T3, DAN-his (Sinobiological)", "test": "ELISA on coated DAN-his; unit from the axis Ab(nM); panel called FIG. 19C in the text", "method": "as §2"}, "[10]": {"target": "T2, HGREM1-His (ACRO)", "test": "competition ELISA, Gremlin-his 0.25 ug/ml binding to coated FGFR1-Fc", "method": "Next, 0.25 μg/ml of gremlin was selected to test the blocking activity. The ability of antibodies to block Gremlin binding to human FGFR1-Fc was examined via ELISA. Plates were coated with recombinant FGFR1-Fc (2 μg/ml) overnight and then serial dilutions of antibodies were incubated with 0.25 μg/ml of human Gremlin-his modified for 1 h at RT before this complex was added to coated plates and allowed to incubate for an additional hour at RT. The plates were then washed and added with anti-his HRP (GenScript). Plates were then developed with a TMB solution and stopped by adding stop solution. The plates were read on a plate reader at 450 nm. […] Humanized anti-GREM1 antibodies provided herein (e.g., Hu14E3, Hu22F1) are expected to show the similar technical effect as their chimeric counterparts in blocking the binding of hGREM1 to FGFR1."}, "[11]": {"target": "T3, DAN-his (Sinobiological)", "test": "blocking ELISA: coated BMP2, antibody pre-incubated with human DAN-his, anti-his HRP; blocked ligand BMP2; unit from the axis Concentration(nM)", "method": "as §3"}, "[12]": {"target": "T2, HGREM1-His (ACRO)", "test": "ELISA on coated Gremlin-his; unit from the axis label Ab(ug/ml), the table prints none", "method": "as §2"}, "[13]": {"target": "T4, BMP4 with his-tag (Homo sapiens (Human), UniProt P12644 293-408, Natural BMP4 is a disulfide-linked homodimer; one protomer is given. The his-tag is left out.)", "T4 construct": "also called BMPs (BMP2/4/7) with his-tag", "T4 sequence": "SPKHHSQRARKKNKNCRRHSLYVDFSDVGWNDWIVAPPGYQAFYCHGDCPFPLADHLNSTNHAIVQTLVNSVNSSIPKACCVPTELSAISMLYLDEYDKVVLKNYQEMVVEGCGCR", "test": "ELISA: anti-human Fc coated, XM5-hFc supernatant (1:32) captured, his-tagged BMP4 titrated, anti-his-HRP"}, "[14]": {"target": "T5, BMP7 with his-tag (Homo sapiens (Human), UniProt P18075 293-431, Natural BMP7 is a disulfide-linked homodimer; one protomer is given. The his-tag is left out.)", "T5 construct": "also called BMPs (BMP2/4/7) with his-tag", "T5 sequence": "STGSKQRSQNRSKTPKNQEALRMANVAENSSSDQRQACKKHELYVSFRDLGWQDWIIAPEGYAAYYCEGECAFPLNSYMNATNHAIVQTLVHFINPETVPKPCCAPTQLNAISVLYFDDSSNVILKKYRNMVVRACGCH", "test": "ELISA: anti-human Fc coated, XM5-hFc supernatant (1:32) captured, his-tagged BMP7 titrated, anti-his-HRP"}, "[15]": {"target": "T6, BMP2 with his-tag (Homo sapiens (Human), UniProt P12643 283-396, Natural BMP2 is a disulfide-linked homodimer; one protomer is given. The his-tag is left out.)", "T6 construct": "soluble his-tagged BMP used on captured XM5-Fc or Gremlin-Fc; also called BMPs (BMP2/4/7) with his-tag", "test": "ELISA: anti-human Fc coated, XM5-hFc supernatant (1:32) captured, his-tagged BMP2 titrated, anti-his-HRP"}},
  "data": [
    {"binder": "recombinant human BMP4 (ligand, UniProt P12644 293-408, looked up, also called hBMP4) SPKHHSQRARKKNKNCRRHSLYVDFSDVGWNDWIVAPPGYQAFYCHGDCPFPLADHLNSTNHAIVQTLVNSVNSSIPKACCVPTELSAISMLYLDEYDKVVLKNYQEMVVEGCGCR", "values": [
      {"measurement": "binding result", "setting": "[1]", "result": "binds"},
      {"measurement": "binding result", "setting": "[2]", "result": "binds"}
    ]},
    {"binder": "humanized anti-gremlin1 antibody 14E3 (variant not stated) (antibody, V domains shown, also called Hu14E3; humanized 14E3) VH: QVQLVQSGSELKKPGASVKVSCKASGYTFTTYGMAWMRQAPGQGLEWMGWINTLSGEPTYADDFKGRFVFSLDTSVSTAYLQISSLKAEDTAVYYCAREPMDYWGQGTMVTVSS VL: DVVMTQSPLSLPVTLGQPASISCKSSQSLLDSDGKTYLSWLQQRPGQSPRRLIYLVSKLDSGVPDRFSGSGSGTDFTLKISRVEAEDVGVYYCWQGAHFPLTFGQGTKLEIK", "values": [
      {"measurement": "Kd", "setting": "[3]", "result": "< 1", "unit": "nM"}
    ]},
    {"binder": "recombinant human BMP2 (ligand, UniProt P12643 283-396, looked up, also called hBMP2) QAKHKQRKRLKSSCKRHPLYVDFSDVGWNDWIVAPPGYHAFYCHGECPFPLADHLNSTNHAIVQTLVNSVNSKIPKACCVPTELSAISMLYLDENEKVVLKNYQDMVVEGCGCR", "values": [
      {"measurement": "binding result", "setting": "[4]", "result": "binds"},
      {"measurement": "binding result", "setting": "[5]", "result": "binds"}
    ]},
    {"binder": "chimeric antibody 36F5 (36F5-chi) (antibody, human IgG1, V domains shown, also called chimeric 36F5) VH: QVQLQQSGAELARPGASVKLSCKASGYSFTSSGIGWVKQRSGQGLEWIGEIYPRSGNTYNNEKFKGKATLTADKSSSTVYMELRSLTSEDSAVYFCVREAYSHHYYAMDYWGQGTSVTVFS VL: DVLMTQTPLSLPVSLGGQASISCRSSQSLLHSNGNTYLEWYLQKPGQSPKLLIYKVSNRFSGVPDRLSGSGSGTDFTLKISRVEAEDLGVYYCFQGSHVPFTFGSGTKLEIN", "values": [
      {"measurement": "EC50", "setting": "[6]", "result": 0.02, "unit": "µg/mL"},
      {"measurement": "IC50", "setting": "[7]", "result": 3.93, "unit": "nM"},
      {"measurement": "EC50", "setting": "[8]", "result": 0.0183, "unit": "nM"},
      {"measurement": "EC50", "setting": "[9]", "result": 0.0211, "unit": "nM"},
      {"measurement": "IC50", "setting": "[10]", "result": 1.37, "unit": "nM"},
      {"measurement": "IC50", "setting": "[11]", "result": 3.29, "unit": "nM"},
      {"measurement": "EC50", "setting": "[12]", "result": 0.0238, "unit": "µg/mL"}
    ]},
    {"binder": "XM5-Fc (Fc fusion, not shown: a dimerising Fc or GST, also called gremlin 1-DAN fusion protein) KKKGSQGAIPPPDKAQHNDSEQTQSPQQPGSRNRGRGQGRGTAMPGEEVLESSQEALHVTERKYLKRDWCKTQPLKQTIHEEGCNSRTIINRFCYGQCFSYSVPNTFPQSTESLVHCDSCKPKKFTTMMVTLNCPELQPPTKKKRVTRVKQCRCISIDLD", "values": [
      {"measurement": "binding result", "setting": "[13]", "result": "no binding (tested: 2.00 ug/ml)"},
      {"measurement": "binding result", "setting": "[14]", "result": "no binding (tested: 2.00 ug/ml)"},
      {"measurement": "binding result", "setting": "[15]", "result": "no binding (tested: 2.00 ug/ml)"}
    ]}
  ]
}
